Measured values as given in patent US20220411492A1 (QILU PHARMACEUTICAL, published 2022).
Like-named read-outs stand apart in the source and are kept apart here.

Experiments:
[1] = biological target: T1, human Claudin 18.2 (hCLDN18.2) (human, UniProt P56856-2 1-261); assay: FACS, HEK293-hCLDN18.2 cells
[2] = biological target: T1, human Claudin 18.2 (hCLDN18.2); assay: cell-based or functional assay
[3] = biological target: T1, human Claudin 18.2 (hCLDN18.2); assay: FACS, HEK293-hCLDN18.2 cells; remark: listed apart in the source
[4] = biological target: murine CLDN18.2 (mCLDN18.2) (murine) (UniProt P56857); assay: FACS, HEK293-mCLDN18.2 cells
[5] = biological target: murine CLDN18.2 (mCLDN18.2) (murine) (UniProt P56857); assay: FACS, HEK293-mCLDN18.2 cells; remark: listed apart in the source
[6] = biological target: T1, human Claudin 18.2 (hCLDN18.2); assay: FACS, PDX-hCLDN18.2 gastric cancer tumor tissue-derived cells
[7] = biological target: T1, human Claudin 18.2 (hCLDN18.2); assay: as above; remark: listed apart in the source
[8] = biological target: T1, human Claudin 18.2 (hCLDN18.2); assay: FACS, HEK293-hCLDN18.2 cells; remark: listed apart in the source
[9] = biological target: T1, human Claudin 18.2 (hCLDN18.2); assay: cell-based or functional assay; remark: listed apart in the source

Mean maximum fluorescence intensity (Top MFI) [1]: 26900 MFI | CDC EC50 [2]: 1.55 µg/mL | CDC Maximum lysis (%) [2]: 87.8% | EC50 [3]: 0.881 nM | Mean maximum fluorescence intensity (Top MFI) [3]: 5450 MFI | EC50 [4]: 1.01 nM | Mean maximum fluorescence intensity (Top MFI) [4]: 4190 MFI | EC50 [5]: 0.136 µg/mL | Mean maximum fluorescence intensity (Top MFI) [5]: 86400 MFI | EC50 [6]: 24.9 nM | Mean maximum fluorescence intensity (Top MFI) [6]: 5700 MFI | EC50 [7]: 63.9 nM | Mean maximum fluorescence intensity (Top MFI) [7]: 7160 MFI | EC50 [8]: 0.156 µg/mL | Mean maximum fluorescence intensity (Top MFI) [8]: 2840 MFI | ADCC EC50 [9]: 0.021 µg/mL | ADCC Maximum lysis (%) [9]: 31.8% | CDC EC50 [9]: 1.19 µg/mL | CDC Maximum lysis (%) [9]: 87.4%
Substance: chimeric antibody ch-175D10 from patent CN103509110B
